Reference: US6600012 (BIOMIRA, dated 2003)

B1: SIINFEKL, 8-mer ovalbumin (OVA) peptide (peptide)
peptide: SIINFEKL
notes: It is the positive control for HLA.A2 upregulation and the negative control for killing

What was measured:
[1] = biological target: T1, HLA.A2 on T2 mutant cells; assay: T2 cell HLA.A2 upregulation assay, flow cytometry with MA2.1
T1 construct: MHC class I molecule on the T2 cell surface; also called HLA.A2.1; class I on T2 cells

[2] = biological target: T1, HLA.A2 on T2 mutant cells; assay: T2 cell HLA.A2 upregulation assay, flow cytometry

Binder | % Change in mean channel intensity [1] | binding result [2]
TSAPDTRPA (also called TSA 9 mer; 9 mers TSA . .) [TSAPDTRPA, MUC-1 tandem repeat synthetic 9 mer] | 256% | –
TSAPDTR (also called 7 mer TSA . . . peptide) [TSAPDTR, MUC-1 synthetic 7 mer] | – | no binding (tested: 50 µM/well)
PDTRPAPGS [PDTRPAPGS, MUC-1 tandem repeat synthetic 9 mer] | 3% | –
APDTRPAPG [APDTRPAPG, MUC-1 tandem repeat synthetic 9 mer] | 66% | –
DTRPAPGST [DTRPAPGST, MUC-1 tandem repeat synthetic 9 mer] | 52% | –
B1 | – | binds
VTSAPDTRP [VTSAPDTRP, MUC-1 tandem repeat synthetic 9 mer] | 29% | –
GVTSAPDTR [GVTSAPDTR, MUC-1 tandem repeat synthetic 9 mer] | 12% | –
